Source: patent US20260167959A1, “APTAZYME-BASED REGULATABLE GENE EXPRESSION SYSTEMS” (REJUVENATE BIO INC, priority 2022, published 2026)
Changes are numbered by the printed parent chain.

B1: RA096 (nucleic acid)
DNA: GCGCGTCAGTGATACCAGCATCGTCTTGATGCCCTTGGCAGCACTCTGGATTCGCGGAAACGCGTACATCCAGCTGACGAGTCCCAAATAGGACGAAACGCGC
modifications: expressed or natural sequence
B2: RA091 (nucleic acid)
DNA: GGAATACCAGCATCGTCTTGATGCCCTTGGAAGTCCGCGCGTCCTGGATTCGCGGAAACGCGTACATCCAGCTGACGAGTCCCAAATAGGACGAAACGCGC
modifications: expressed or natural sequence
B3: RA105 (nucleic acid)
DNA: GCGCGTCCTGGAGAATACCAGCATCGTCTTGATGCCCTTGGAAGTCTCGATTCGCGGAAACGCGTACATCCAGCTGACGAGTCCCAAATAGGACGAAACGCGC
modifications: expressed or natural sequence
B4: RA082 (nucleic acid)
DNA: GCGCGTCCTGGATTCGAGAATACCAGCATCGTCTTGATGCCCTTGGAAGTCTCGGAAACGCGTACATCCAGCTGACGAGTCCCAAATAGGACGAAACGCGC
modifications: expressed or natural sequence
B5: RA084 (nucleic acid)
DNA: GCGCGTCCTGGAGAGAATACCAGCATCGTCTTGATGCCCTTGGAAGTCTCTTCGCGGAAACGCGTACATCCAGCTGACGAGTCCCAAATAGGACGAAACGCGC
modifications: expressed or natural sequence
B6: RA090 (nucleic acid)
DNA: B5 DNA with G13A, A14G, G15T, A16G, A44C, T47C, C48A, T49C, C50T
modifications: expressed or natural sequence
B7: RA085 (nucleic acid)
DNA: GCGCGTCCTGGATTCGCGGAAACGCGTACATCCAGAATACCAGCATCGTCTTGATGCCCTTGGAAGTCTAGCTGACGAGTCCCAAATAGGACGAAACGCGC
modifications: expressed or natural sequence
B8: RA008 (nucleic acid)
DNA: GCGCGTCCTGGATTCGCGGAAACGGAATACCAGCATCGTCTTGATGCCCTTGGAAGTCCGCGCGTACATCCAGCTGACGAGTCCCAAATAGGACGAAACGCGC
modifications: expressed or natural sequence
B9: RA100 (nucleic acid)
DNA: GCGCGTCCTGGATTCGCGGAAACGCGTACATCCAGCTGACCGGAATACCAGCATCGTCTTGATGCCCTTGGAAGTCCGGAGTCCCAAATAGGACGAAACGCGC
modifications: expressed or natural sequence
B10: RA080 (nucleic acid)
DNA: GCGCGTCCTGGATTCGGAGAATACCAGCATCGTCTTGATGCCCTTGGAAGTCTCCGGAAACGCGTACATCCAGCTGACGAGTCCCAAATAGGACGAAACGCGC
modifications: expressed or natural sequence
B11: RA087 (nucleic acid)
DNA: GCGCGTCCTGGATTCGCGGAAACGCGTACATCCAGCTGACGAGCGAGAATACCAGCATCGTCTTGATGCCCTTGGAAGTCTCGTCCCAAATAGGACGAAACGCGC
modifications: expressed or natural sequence
B12: RA088 (nucleic acid)
DNA: GCGCGTCCTGGATTCGCGGAAACGCGTACATCCCGAGAATACCAGCATCGTCTTGATGCCCTTGGAAGTCTCGAGCTGACGAGTCCCAAATAGGACGAAACGCGC
modifications: expressed or natural sequence
B13: RA098 (nucleic acid)
DNA: B12 DNA with G35C, A36G, T71C, C72G
modifications: expressed or natural sequence
B14: RA104 (nucleic acid)
DNA: GCGCGTCCTGGATTCGCGGAAACGCGTACATCCAGCTGACGAGTCCCAAATCGAGAATACCAGCATCGTCTTGATGCCCTTGGAAGTCTCGAGGACGAAACGCGC
modifications: expressed or natural sequence
B15: RA097 (nucleic acid)
DNA: GCGCGTCCTGGATTCGCGGAAACGCGTACATCCAGCTGACGAGTCCCAGAATACCAGCATCGTCTTGATGCCCTTGGAAGTCTAAATAGGACGAAACGCGC
modifications: expressed or natural sequence
B16: RA094 (nucleic acid)
DNA: GCGCGTCCTGGATTCGCGGAGGAATACCAGCATCGTCTTGATGCCCTTGGAAGTCCAACGCGTACATCCAGCTGACGAGTCCCAAATAGGACGAAACGCGC
modifications: expressed or natural sequence
B17: RA086 (nucleic acid)
DNA: GCGCGTCCTGGATTCGCGGAAACGCGGAATACCAGCATCGTCTTGATGCCCTTGGAAGTCCGCGTACATCCAGCTGACGAGTCCCAAATAGGACGAAACGCGC
modifications: expressed or natural sequence
B18: RA092 (nucleic acid)
DNA: GCGCGTCCTGGATTCGCGGAAACGCGTACATCCAGCTGACGAGTCCCAAATAGGACCGGAATACCAGCATCGTCTTGATGCCCTTGGAAGTCCGGCGAAACGCGC
modifications: expressed or natural sequence
B19: RA009 (nucleic acid)
DNA: GCGCGTCCTGGATTCGCGGAAACGCGTACATCCAGCTGACGAGTCCCAAATAGGACGACCGGAATACCAGCATCGTCTTGATGCCCTTGGAAGTCCGGAACGCGC
modifications: expressed or natural sequence
B20: RA099 (nucleic acid)
DNA: GCGCGTCCTGGATTCGCGGAAACGCGTACATAGTGATACCAGCATCGTCTTGATGCCCTTGGCAGCACTCCAGCTGACGAGTCCCAAATAGGACGAAACGCGC
modifications: expressed or natural sequence
B21: RA079 (nucleic acid)
DNA: GCGCGTCCTGGATTCGCGGAAACGCGTACATCCAGCGAGAATACCAGCATCGTCTTGATGCCCTTGGAAGTCTCGCTGACGAGTCCCAAATAGGACGAAACGCGC
modifications: expressed or natural sequence
B22: RA083 (nucleic acid)
DNA: GCGCGTCCGGAATACCAGCATCGTCTTGATGCCCTTGGAAGTCCTGGATTCGCGGAAACGCGTACATCCAGCTGACGAGTCCCAAATAGGACGAAACGCGC
modifications: expressed or natural sequence
B23: RA095 (nucleic acid)
DNA: GCGCGTCAGAATACCAGCATCGTCTTGATGCCCTTGGAAGTCTCTGGATTCGCGGAAACGCGTACATCCAGCTGACGAGTCCCAAATAGGACGAAACGCGC
modifications: expressed or natural sequence
B24: RA102 (nucleic acid)
DNA: B23 DNA with A8G, T43C
modifications: expressed or natural sequence
B25: RA081 (nucleic acid)
DNA: GCGCGTCCTGGATTCGCGGAAACGCGTACATCCAGCTGACGAGTCCCAAGGAATACCAGCATCGTCTTGATGCCCTTGGAAGTCCATAGGACGAAACGCGC
modifications: expressed or natural sequence
B26: RA101 (nucleic acid)
DNA: GCGCGTCCTGGATTCGCGGAAACGCGTACATCCAGCTGACGAGTCCCAAATAGGACGAACGGAATACCAGCATCGTCTTGATGCCCTTGGAAGTCCGACGCGC
modifications: expressed or natural sequence
B27: RA089 (nucleic acid)
DNA: GCGCGTCCTGGATTCGCGGAAACGCGTACATCCAGCTGACGAGTCCCAAATAGGACCGGAATACCAGCATCGTCTTGATGCCCTTGGAAGTCCGGAAACGCGC
modifications: expressed or natural sequence
B28: RA103 (nucleic acid)
DNA: GCGCGTCCTGGATTCGCGGAAACGCGTACATCCAGCTGACGGAATACCAGCATCGTCTTGATGCCCTTGGAAGTCCGAGTCCCAAATAGGACGAAACGCGC
modifications: expressed or natural sequence
B29: RA093 (nucleic acid)
DNA: AGTGATACCAGCATCGTCTTGATGCCCTTGGCAGCACTGCGCGTCCTGGATTCGCGGAAACGCGTACATCCAGCTGACGAGTCCCAAATAGGACGAAACGCGC
modifications: expressed or natural sequence

system: Renilla luciferase RNA; assay: Barcoded aptazyme variant library screen: un-cleaved Renilla luciferase RNA by barcode read counts, HEK293-T cells; format: cell-based; conditions: un-cleaved Renilla luciferase RNA, HEK293-T cells cultured with 1 mM theophylline (ON) over without theophylline (OFF); barcode read counts, triplicate
Method in brief: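 Barcode sequencing of cDNA versus DNA, normalized per aptazyme, gave the un-cleaved Renilla luciferase RNA fraction and fold-change with versus without theophylline (triplicates). Library: T3H48 ribozyme with one of seven theophylline aptamer variants inserted at each position, placed in the Renilla 3′ UTR of a dual-luciferase vector.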

In order of falling “Fold change in RNA expression between the ON state and the OFF state” value:
1. B8  4.2 fold
2. B19  3.8 fold
3. B21  1.8 fold
4. B4  1.7 fold
5. B5  1.7 fold
6. B6  1.7 fold
7. B7  1.7 fold
8. B10  1.7 fold
9. B11  1.7 fold
10. B12  1.7 fold
11. B17  1.7 fold
12. B22  1.7 fold
13. B25  1.7 fold
14. B27  1.7 fold
15. B1  1.6 fold
16. B2  1.6 fold
17. B3  1.6 fold
18. B9  1.6 fold
19. B13  1.6 fold
20. B14  1.6 fold
21. B15  1.6 fold
22. B16  1.6 fold
23. B18  1.6 fold
24. B20  1.6 fold
25. B23  1.6 fold
26. B24  1.6 fold
27. B26  1.6 fold
28. B28  1.6 fold
29. B29  1.6 fold
